Reference: publication PMC12363564, “Modulation of the PTPRS proteoglycan switch by antibodies binding to the membrane-proximal fibronectin-type III domain” (The Journal of Biological Chemistry, 2025)
Blank lines part the entries; values can stand above or below the binder they belong to.

Key:
[1] = biological target: T1, WT human PTPRS (hPTPRS) isoform 1 with a C-terminal HA tag (human, UniProt Q13332); assay: co-IP; RIPA lysates of HEK293T cells overexpressing HA-tagged full length or truncated hPTPRS incubated with the antibody for 2 h at 4 °C, Protein G Sepharose, anti-HA blot; conditions: one partner purified
T1 construct: human PTPRS isoform 1, open reading frame in pcDNA3.1 (+); also called PTPRS-HA; hPTPRS-HA; source: HEK293T, transfected; in RIPA lysate (immunoprecipitation), on or in cells (flow cytometry, PLA); not shown: HA, C-terminal, kept

[2] = biological target: T2, PTPRS^Δ326 (hPTPRS-HA N-terminal truncation lacking Ig-like domains 1 to 3) (Homo sapiens, UniProt Q13332, point mutant); assay: as above; conditions: one partner purified
T2 construct: human PTPRS isoform 1, N-terminal truncation lacking Ig-like domains 1 to 3, obtained from WT hPTPRS-HA by site-directed mutagenesis; source: HEK293T, transfected, in RIPA lysate; not shown: HA, C-terminal, kept

[3] = biological target: T3, PTPRS^Δ1096 (hPTPRS-HA N-terminal truncation lacking the ECD including most of Fn8) (Homo sapiens, UniProt Q13332, point mutant); assay: as above; conditions: one partner purified
T3 construct: human PTPRS isoform 1, N-terminal truncation lacking the ECD including most of Fn8, obtained from WT hPTPRS-HA by site-directed mutagenesis; source: HEK293T, transfected, in RIPA lysate; not shown: HA, C-terminal, kept

[4] = biological target: T4, C-terminally 6xHis tagged mouse PTPRS (mPTPRS) ECD (Mus musculus, UniProt B0V2N1); assay: BLI; His-tagged ligand (mPTPRS ECD or hPTPRS Fn9) immobilised on anti-6xHis probes at 100 to 200 nM; antibodies or scFv-Fc fusions as analytes; Gator K buffer (0.02% BSA, 0.002% Tween-20 in PBS, pH 7.4), 37 °C; biphasic (2:1) association model; conditions: both partners purified
T4 construct: also called mPTPRS ectodomain; PTPRS ectodomain; source: HEK293T, transiently transfected, supernatant; purified (Ni-NTA, HiTrap heparin); not shown: His6, C-terminal, kept

[5] = biological target: T5, C-terminally 6xHis tagged mouse PTPRS (mPTPRS) ECD (mouse, UniProt B0V2N1 30-1257); assay: BLI
T5 chain: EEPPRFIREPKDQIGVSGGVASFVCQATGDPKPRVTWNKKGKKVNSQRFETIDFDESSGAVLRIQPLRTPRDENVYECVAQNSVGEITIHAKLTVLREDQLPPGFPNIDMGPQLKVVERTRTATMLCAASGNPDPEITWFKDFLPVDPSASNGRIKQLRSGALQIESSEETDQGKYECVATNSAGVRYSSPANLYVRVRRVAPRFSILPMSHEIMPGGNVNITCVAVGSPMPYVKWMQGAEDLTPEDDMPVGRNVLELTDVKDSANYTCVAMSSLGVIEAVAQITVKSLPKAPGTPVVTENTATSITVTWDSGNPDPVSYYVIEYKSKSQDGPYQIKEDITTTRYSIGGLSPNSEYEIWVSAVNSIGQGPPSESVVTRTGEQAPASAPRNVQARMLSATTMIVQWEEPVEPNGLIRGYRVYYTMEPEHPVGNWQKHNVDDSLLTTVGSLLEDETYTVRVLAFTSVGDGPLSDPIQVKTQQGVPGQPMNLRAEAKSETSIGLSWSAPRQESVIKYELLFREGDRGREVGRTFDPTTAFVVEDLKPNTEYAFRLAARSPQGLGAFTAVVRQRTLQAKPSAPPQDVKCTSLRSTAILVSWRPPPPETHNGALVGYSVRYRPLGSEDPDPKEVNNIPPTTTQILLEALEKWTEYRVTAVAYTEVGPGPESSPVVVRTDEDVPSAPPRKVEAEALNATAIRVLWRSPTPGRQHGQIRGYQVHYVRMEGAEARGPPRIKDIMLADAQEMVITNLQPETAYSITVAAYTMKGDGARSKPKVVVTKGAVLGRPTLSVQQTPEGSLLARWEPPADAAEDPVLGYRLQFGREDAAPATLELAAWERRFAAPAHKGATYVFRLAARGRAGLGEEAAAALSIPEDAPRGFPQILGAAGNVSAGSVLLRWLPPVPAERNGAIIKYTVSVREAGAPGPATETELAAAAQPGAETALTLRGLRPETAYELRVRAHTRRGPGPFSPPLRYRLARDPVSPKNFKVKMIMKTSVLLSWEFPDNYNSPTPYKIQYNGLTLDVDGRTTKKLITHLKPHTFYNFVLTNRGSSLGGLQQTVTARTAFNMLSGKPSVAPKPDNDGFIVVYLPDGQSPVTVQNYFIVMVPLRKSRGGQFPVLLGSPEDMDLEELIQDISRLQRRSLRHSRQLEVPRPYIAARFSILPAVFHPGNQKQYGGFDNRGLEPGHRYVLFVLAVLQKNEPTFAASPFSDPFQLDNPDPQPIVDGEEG

[6] = biological target: T5, C-terminally 6xHis tagged mouse PTPRS …; assay: BLI
[7] = biological target: T5, C-terminally 6xHis tagged mouse PTPRS …; assay: BLI
[8] = biological target: T6, 6xHis-tagged hPTPRS Fn9 (residues 1117-1270) (human, UniProt Q13332 1117-1270); assay: BLI
T6 chain: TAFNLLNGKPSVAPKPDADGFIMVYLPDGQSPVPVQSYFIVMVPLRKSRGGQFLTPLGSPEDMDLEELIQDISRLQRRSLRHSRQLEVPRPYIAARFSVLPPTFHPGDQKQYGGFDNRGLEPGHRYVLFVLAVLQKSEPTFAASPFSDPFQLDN

[9] = biological target: T6, 6xHis-tagged hPTPRS Fn9 (residues …); assay: BLI
[10] = biological target: T5, C-terminally 6xHis tagged mouse PTPRS …; assay: SPR
[11] = biological target: T4, C-terminally 6xHis tagged mouse PTPRS …; assay: SPR; Octet SF3; anti-PTPRS Ab immobilised by amine coupling on a PCH sensor chip; analyte mPTPRS ECD 2500 nM to 9.77 nM; 1x PBS with 0.005% Tween-20; multi-cycle kinetics; conditions: both partners purified
[12] = biological target: T1, WT human PTPRS (hPTPRS) isoform 1 with …; assay: flow cytometry on cells; HEK293T cells transfected with hPTPRS-HA (WT or Fn9mut) or empty vector, incubated 1 h with the antibody, AF568-labelled anti-mouse IgG; conditions: one partner purified
[13] = biological target: T7, 6xHis-tagged hPTPRS Fn9 (residues 1117-1270) (Homo sapiens, UniProt Q13332); assay: BLI; His-tagged ligand (mPTPRS ECD or hPTPRS Fn9) immobilised on anti-6xHis probes at 100 to 200 nM; antibodies or scFv-Fc fusions as analytes; Gator K buffer (0.02% BSA, 0.002% Tween-20 in PBS, pH 7.4), 37 °C; biphasic (2:1) association model; conditions: both partners purified
T7 construct: human PTPRS isoform 1 (Q13332), fibronectin type III-like domain 9, residues 1117-1270, amplified from WT hPTPRS and subcloned into pHLsec; the printed primers encode a start at TAFNLLN and an end at PFQLDN (translated from the primers); also called hPTPRS Fn9His; Fn9 fragment of PTPRS; source: HEK293T, transiently transfected, supernatant

[14] = biological target: T1, WT human PTPRS (hPTPRS) isoform 1 with …; assay: proximity ligation; purified antibody, scFv-Fc or Fc decoy added for 30 min to the co-transfected HEK293T cells before the PLA; read-out is the loss of the PLA signal of the tagged pair; conditions: one partner purified

T1 sequence (Q13332 30-1948): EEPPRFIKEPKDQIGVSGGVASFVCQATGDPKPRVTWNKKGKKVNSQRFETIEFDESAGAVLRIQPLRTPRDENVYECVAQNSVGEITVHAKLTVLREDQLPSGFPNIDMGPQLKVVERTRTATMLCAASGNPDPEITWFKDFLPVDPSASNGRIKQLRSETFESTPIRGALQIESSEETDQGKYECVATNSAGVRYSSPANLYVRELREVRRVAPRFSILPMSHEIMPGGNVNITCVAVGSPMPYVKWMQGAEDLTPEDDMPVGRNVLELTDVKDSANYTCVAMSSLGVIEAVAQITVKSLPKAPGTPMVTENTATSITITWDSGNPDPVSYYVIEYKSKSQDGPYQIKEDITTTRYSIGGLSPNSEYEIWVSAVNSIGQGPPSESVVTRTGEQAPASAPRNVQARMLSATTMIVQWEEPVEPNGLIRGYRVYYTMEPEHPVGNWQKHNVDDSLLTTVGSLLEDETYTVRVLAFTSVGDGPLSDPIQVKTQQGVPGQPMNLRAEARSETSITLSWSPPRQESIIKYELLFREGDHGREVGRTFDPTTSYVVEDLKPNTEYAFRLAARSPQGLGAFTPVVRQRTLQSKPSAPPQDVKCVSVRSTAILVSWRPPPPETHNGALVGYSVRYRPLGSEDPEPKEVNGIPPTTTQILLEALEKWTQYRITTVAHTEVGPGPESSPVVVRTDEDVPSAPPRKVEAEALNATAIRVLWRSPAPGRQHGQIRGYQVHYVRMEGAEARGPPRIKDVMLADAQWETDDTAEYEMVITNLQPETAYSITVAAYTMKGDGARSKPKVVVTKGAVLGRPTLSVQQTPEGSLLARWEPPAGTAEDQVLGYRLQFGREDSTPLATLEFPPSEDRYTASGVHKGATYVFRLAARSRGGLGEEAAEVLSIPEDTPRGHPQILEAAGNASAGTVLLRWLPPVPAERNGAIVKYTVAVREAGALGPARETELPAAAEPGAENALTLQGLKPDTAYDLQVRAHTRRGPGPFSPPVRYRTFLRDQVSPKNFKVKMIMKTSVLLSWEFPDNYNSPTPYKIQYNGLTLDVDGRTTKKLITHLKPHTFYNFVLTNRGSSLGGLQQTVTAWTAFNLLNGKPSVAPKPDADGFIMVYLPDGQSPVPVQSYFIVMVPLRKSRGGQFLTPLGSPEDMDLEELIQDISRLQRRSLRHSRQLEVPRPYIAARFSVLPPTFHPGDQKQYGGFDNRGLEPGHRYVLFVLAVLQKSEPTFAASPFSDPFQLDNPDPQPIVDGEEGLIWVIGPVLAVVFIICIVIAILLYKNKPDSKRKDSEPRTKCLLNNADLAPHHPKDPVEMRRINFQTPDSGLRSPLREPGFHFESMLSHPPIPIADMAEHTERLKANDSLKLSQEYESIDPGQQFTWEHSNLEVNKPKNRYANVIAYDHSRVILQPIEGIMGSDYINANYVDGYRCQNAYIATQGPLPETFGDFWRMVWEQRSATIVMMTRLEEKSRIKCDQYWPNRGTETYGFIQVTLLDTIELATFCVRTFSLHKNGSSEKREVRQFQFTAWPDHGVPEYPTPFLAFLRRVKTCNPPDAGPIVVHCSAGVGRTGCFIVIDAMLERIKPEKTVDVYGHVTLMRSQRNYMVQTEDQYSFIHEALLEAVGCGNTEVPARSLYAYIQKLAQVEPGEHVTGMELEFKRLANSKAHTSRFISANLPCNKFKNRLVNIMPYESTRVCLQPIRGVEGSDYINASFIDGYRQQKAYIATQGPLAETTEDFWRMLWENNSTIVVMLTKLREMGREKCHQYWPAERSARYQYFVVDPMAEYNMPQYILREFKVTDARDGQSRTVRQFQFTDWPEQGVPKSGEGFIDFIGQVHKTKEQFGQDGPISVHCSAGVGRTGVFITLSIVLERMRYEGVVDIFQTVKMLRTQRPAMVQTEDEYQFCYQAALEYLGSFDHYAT

- binding result [1]: binds
- binding result [2]: binds
- binding result [3]: binds
- Kd [4]: 25.7 ± 9.66 nM
- koff [5]: 0.005 s⁻¹
B1: 49F2 (mouse monoclonal antibody, IgG1/κ) (antibody, V domains shown)
VH: EVQLVESGGDLVKPGGSLKLSCAASGFIFSSYGMSWVRQTPDKRLEWVATISSGGSDTYYPDSVKGRFTISRDNANNTLYLQMSSLKSEDTAMYYCARQVYYGLYWYFDVWGAGTTVTVSS
VL: DIVMTQSHKFMSTSVGDRVSIICKASQDVNTAVAWYQQKPGQSPKLLIYSASYRYTGVPDRFTGSGSGTDFTFTISSVQAEDLAIYYCQQHYSTPYTFGGGTKLEIK
notes: VH of 49F2; constant region of the mouse IgG1 heavy chain; VL of 49F2; constant region of the mouse κ light chain; IgG1/κ; source: production contracted to Viva Biotech

- koff [8]: 0.003 s⁻¹
- binding result [2]: binds
- binding result [3]: binds
- koff [10]: 0.00079 s⁻¹
- Kd [11]: 95 nM
- Kd [4]: 122 ± 1.9 nM
- koff [5]: 0.083 s⁻¹
- mean fluorescence relative to 22H8 [12]: ~2 fold
- Kd [9]: 6.03 nM
B4: 13G5 (mouse monoclonal antibody, IgG2b/κ) (antibody, V domains shown)
VH: EVKLVESGGGLVQPGGSLKLSCATSGFTFSDYYMYWVRQTPEKRLEWVAYISNGGGSTYYPDTVKGRFTISRDNAKNTLYLQMSRLKSEDTAMYYCARHVYYGRNYAMDYWGQGTSVTVSS
VL: DIQMTQTTSSLSASLGDRVTISCRASQDISNYLNWYQQKPDGTVKLLIYYTSRLHSGVPSRFSGSGSGTDYSLTISNLEQEDIATYFCQQGNTLPYTFGGGTKLEIK
notes: VH of 13G5; constant region of the mouse IgG2b heavy chain; VL of 13G5; constant region of the mouse κ light chain; IgG2b/κ; also called anti-PTPRS Ab 13G5; source: production contracted to Viva Biotech

- koff [8]: 0.0056 s⁻¹
- binding result [14]: binds
- binding result [13]: binds
- Kd [9]: 2.65 nM
B7: 22H8^HL-scFv-Fc (VH-linker-VL scFv of 22H8 fused to human IgG1 Fc) (scFv, V domains shown)
VH: QVQLQQSGAELARPGASVKLSCKASGYTFTSYWMQWVKQRPGQGLEWIGAIYPGDGDTRYTQKFKGKATLTADKSSSTAYMQLSSLASEDSAVYYCARRIYYGYYYAMDYWGQGTSVTVSS
VL: DIVLTQSPASLAVSLGQRATISCKASQSVDYDGDSYMNWYQQKPGQPPKLLIYAASNLESGIPARFSGSGSGTDFTLNIHPVEEEDAATYYCQQSNEDPLTFGAGTKLELK
notes: as the VH of m3 (22H8); linker between VH and VL; as the VL of m3 (22H8); ORF synthesized by Genscript and subcloned into pHLsec as a C-terminal hFc fusion; also called 22H8-Fc HL; source: HEK293T, transiently transfected, supernatant; purified (Protein A); not shown: Fc (human IgG1), C-terminal, kept

Further lines, the binder ahead of its results:

B2: 13G5^IgG1 (13G5 variable regions on mouse IgG1/κ constant regions) (antibody, V domains shown)
VH: B4 VH
VL: B4 VL
- Kd [6]: 16.5 nM
- koff [7]: 0.003 s⁻¹

B3: 13G5^HL-scFv-Fc (VH-linker-VL scFv of 13G5 fused to human IgG1 Fc) (scFv, V domains shown)
VH: B4 VH
VL: B4 VL
- koff [8]: 0.00016 s⁻¹
- Kd [9]: 0.28 nM

B5: 22H8^IgG2b (22H8 variable regions on mouse IgG2b/κ constant regions) (antibody, V domains shown)
VH: B7 VH
VL: B7 VL
notes: as the VH of m3 (22H8); constant region of the mouse IgG2b heavy chain (entire constant region swapped); as the VL of m3 (22H8); constant region of the mouse κ light chain; IgG2b/κ form of 22H8; source: production contracted to Viva Biotech
- koff [7]: 0.06 s⁻¹
- Kd [4]: 38.2 nM

B6: 22H8 (mouse monoclonal antibody, IgG1/κ) (antibody, V domains shown)
VH: B7 VH
VL: B7 VL
notes: VH of 22H8; constant region of the mouse IgG1 heavy chain; VL of 22H8; constant region of the mouse κ light chain; IgG1/κ; source: production contracted to Viva Biotech
- koff [8]: 0.009 s⁻¹
- binding result [1]: binds
- binding result [2]: binds
- binding result [3]: binds
- Kd [4]: 13.2 ± 3.74 nM
- binding result [13]: binds
- koff [5]: 0.002 s⁻¹
- Kd [9]: 17.6 nM
